Experimental findings from patent US20250326834A1, “COMBINATION THERAPY OF CLAUDIN 18.2 ANTAGONIST AND PD-1/PD-L1 AXIS INHIBITOR” (SUZHOU TRANSCENTA THERAPEUTICS CO., LTD., priority 2021, published 2025) are described below.

For the assay, the system named is NCI-H460-CLDN18.2 xenograft tumor. As to the kind of experiment: NCI-H460-CLDN18.2 and hPBMC co-inoculation xenograft tumor model. Particulars: 10 mg/kg each antibody, i.p. twice a week for 5 weeks. Format: in vivo, NOD-SCID mice. An excerpt: NCI-H460-CLDN18.2 was purchased from Kyinno (Cat #, KC-1450), which was stablely transfected with human CLDN18.2 expression. The tumor cells were routinely sub-cultured twice weekly by trypsin-EDTA treatment (Hyclone). The cells growing in an exponential growth phase were harvested and counted for tumor inoculation. Female SPF grade NOD-SCID mice were inoculated with 3×10^6 NCI-H460-CLDN18.2 cells and 1.5×10^6 human PBMC along with 50% matrigel. Animal were selected and randomized to 4 groups (n=10), approximately 4 hours post inoculation. Animals were then treated with 10 mg/kg Isotype control, 10 mg/kg anti-CLDN18.2 antibody 18B10, 10 mg/kg anti-PD-L1 antibody AM4B6, 10 mg/kg anti-CLDN18.2 antibody 18B10 and 10 mg/kg anti-PD-L1 antibody AM4B6 twice a week for 5 weeks by i.p. injection. Tumor size was measured twice or triple times a week in two dimensions using a caliper (INSIZE) and the volume was expressed in mm^3 using the formula: V=0.5 a×b^2 where a and b are the long and short diameters of the tumor, respectively. Results were analyzed using Prism GraphPad and expressed as mean±S.E.M. Comparisons between two groups were made by T-test, and the difference is considered significant if p is *<0.05 and **<0.01.

B1: AM4B6: anti-PD-L1 antibody; VH SEQ ID NO: 17, VL SEQ ID NO: 18 (antibody, V domains shown)
VH: QVQLVQSGAEVKKPGASVKVSCKASGYVFTDYYMNWVRQAPGQSLEWMGDINPNNAETLYNHKFKGRVTVTVDKSISTAYMELSRLRSDDTAVYYCVKWGDGPFAYWGQGTLVTVSS
VL: DIQMTQSPSSLSASVGDRVTITCKASQNVGAAVAWYQQKPGKAPKLLIYSVSDRYTGVPSRFSGSGSGTDFTLTISSLQPEDIATYYCQQYSNYPTFGQGTKLEIK
As to B1, the “effect on tumor growth compared with isotype control” value is recorded as “no significant impact on tumor growth”. For the setting “Day 29”, this molecule returned a TGI of 17.6%. The Tumor size (Day 29, mean ± S.E.M.) was 557.06 ± 67.47 mm^3.

The TGI is how far tumour growth fell short of that in controls. Low readings indicate little slowing of growth, high ones much slowing of growth.
